{"source": "patent US9611297", "about": "(THRASOS THERAPEUTICS, dated 2017)", "key": {"[1]": {"target": "T1, human uromodulin (human, UniProt P07911 25-614)", "assay": "competition ELISA; biotin-uromodulin + peptide on coated light chain BER (competitor)", "method": "(§1) Enzyme-linked immunosorbant assays (ELISA) were performed on the disclosed peptides. Plates were coated with the following light chain clones overnight at 4° C.: 0.05 uM BER (subtype lambda, isolated from SP2/0 cells), 0.2 uM ROC (subtype kappa, isolated from CHO cells), and 0.3 uM BEN (subtype lambda, isolated from CHO cells). The plates were washed and treated with bovine serum albumin (BSA) overnight at 4° C. For peptide plates, 10 nM biotin-uromodulin was mixed with peptide overnight at 4° C."}, "[2]": {"target": "T1, human uromodulin", "assay": "competition ELISA; biotin-uromodulin + peptide on coated light chain ROC (competitor)", "method": "as §1"}}, "note": "Positions of bridges follow the written chain, without caps; N, C: chain ends. Non-standard residues stand in square brackets, D forms with d. No end group written: not given here."}
{"binder": "[dK][dK]CQQS[dY]SIPYTC[dK][dK] (disulfide 3-13 (inferred), synthetic; disulfide bridge formed per general procedure; also called K*K*CQQSY*SIPYTCK*K*)", "note": "[SEQ ID No. 47]", "values": [{"measurement": "IC50", "setting": "[1]", "value": 32.3, "unit": "µM"}, {"measurement": "IC50", "setting": "[2]", "value": 33.5, "unit": "µM"}]}
